The values that follow come from US10012655B2, “Method for quantitating total HMGB1 protein in biological samples” (INSTITUT PASTEUR, priority 2008, dated 2018).

For one test, the system named is iDCs. In words: Phenotypic maturation of iDCs cultured with rh-HMGB1 or LPS (flow cytometry). It is filed as cell-based, human. Here is the method:
FIG. 1 (a)-(e). aNK cells induce the maturation of primary immature HIV-1-infected DCs. (a) iDCs, generated from purified CD14^+ monocytes in the presence of IL-4 and GM-CSF, were cocultured during 24 h with aNK cells at different ratios. DC survival was determined by flow cytometry with the 7-AAD assay. Surviving DCs were identified as 7AAD^−CD56^− cells. Data represent three independent experiments and values are means±sd. (b) aNK cells induce the maturation of iDCs. Flow cytometry analysis of iDCs, which were either infected with R5-HIV-1 BaL (1 ng/ml of p24) for 3 h or uninfected, were incubated with rNK cells or aNK cells at a ratio of 1:5. Co-staining with HLA-DR and CD86 specific antibodies allowed the identification of mature DCs (CD86^brightHLA-DR^bright) Data from a representative experiment out of three independent experiments are shown. (c) The conditions of infection used in this study were those of a productive infection of iDCs, as shown at day 3 by a significant p24 detection in culture supernatant of infected iDCs and intracellular detection by flow cytometry of p24 in DC targeted by CD40 expression. […] The proportion of mDCs induced by LPS (DC0) (78.1% CD86^brightHLA-DR^bright) is shown as a positive control. […]
FIG. 3 (a)-(e). aNK-dependent maturation of HIV-1-infected iDCs is mediated by HMGB1 and involves RAGE. […] The maturation status of DCs was determined by flow cytometry with CD86 and HLA-DR—specific antibodies. […] Cells were then stained with anti-CD86, -HLA-DR, -CD80, -CD83, DC-LAMP and -CD40 antibodies and analyzed by flow cytometry. (c) Influence of rh-HMGB1 on cytokine and chemokine production (determined by MAP) by DCs. iDCs (10^6 cells/ml) were incubated for 48 h in medium or in presence of rh-HMGB1 (1 or 10 μg/ml). […] (e) iDC, DC0, uninfected or HIV-1-infected iDC cocultured for 24 h with aNK cells, were incubated with rh-HMGB1 (1 μg/ml) and subsequently stained with anti-RAGE antibodies and analyzed by flow cytometry. […]

The test system of a further test is HIV-2. The test can be described thus: HIV-2 replication in infected iDCs, p24 ELISA in culture supernatant. Format: cell-based. The settings on record: HIV-2-infected iDC, day 3 of infection. Here is the method: FIGS. 6 (a), (b) and (c). Exogenous rh-HMGB1 triggers HIV-1 and HIV-2 replication in iDC. (a) HIV-1-infected iDC were cultured alone or in the presence of aNK cells for 3 days. Rh-HMGB1 (1 μg/ml) was added in some cultures. HIV replication was measured by p24 quantification in culture supernatant (b) HIV1-infected iDC were cultured alone or in the presence of aNK cells for 3 days. Blocking anti-HMGB1 antibodies (10 μg/ml) or glycyrrhizin (10 μg/ml) were added at culture initiation. HIV replication was measured by p24 quantification in culture supernatant. The mean±sd of three independent experiments is shown. Statistical comparisons were made with the non parametric Mann-Whitney test. * p<0.05; (c) HIV-2-infected iDC were cultured alone or in the presence of aNK cells for 3 days. Rh-HMGB1 (1 μg/ml) was added in some cultures. HIV replication was measured by p24 quantification in culture supernatant. […]
2—NK-DC cocultures: cells were harvested, washed three times with RPMI containing 10% FCS and, when indicated, aNK cells were added at a NK:DC ratio of 1:5. […] NK-DC cocultures lasted 3 to 7 days before quantification of viral production in culture supernatants.
3—Quantification of HIV-2 viral production: the concentration of HIV-2 particles in the supernatants was determined with the p24 ELISA kit (Ingen, Belgium).

B1: rh-HMGB1: recombinant human HMGB1 protein (R&D Systems) (protein, UniProt P09429 1-215, looked up)
High mobility group protein B1: MGKGDPKKPRGKMSSYAFFVQTCREEHKKKHPDASVNFSEFSKKCSERWKTMSAKEKGKFEDMAKADKARYEREMKTYIPPKGETKKKFKDPNAPKRPPSAFFLFCSEYRPKIKGEHPGLSIGDVAKKLGEMWNNTAADDKQPYEKKAAKLKEKYEKDIAAYRAKGKPDAAKKGVVKAEKSKKKKEEEEDEEDEEDEEEEEDEEDEDEEEDDDDE
For the molecule B1, the “percentage of CD86bright HLA-DRbright DCs” value in the test on iDCs (10 μg/ml, 48 h of culture, medium alone 65%) is listed as 71%. The “phenotypic maturation of iDC” value with iDCs (24 h with 1 to 10 μg/ml, similar at 48 h) is “did not induce phenotypic maturation of iDC”. Besides, in the test on iDCs (rh-HMGB1-treated DCs, 48 h, compared with DC0), the “maturation status by CD80, CD83 and DC-lamp expression” value was “not fully mature”. The “HIV-2 viral replication (p24 in supernatant)” value in the test on HIV-2 is recorded as “slight increase in viral replication”.
